Results as given in the NTF2 design screens of Basanta et al. (2020).

Experiment: protease stability score; higher = more stable; yeast display proteolysis, trypsin and chymotrypsin;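 further: relative to predicted unfolded state with 0 unfolded-like and 1 meaning tenfold more protease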
For “DEEEKWFRESEKLIEELIHTGNEEEFRKLADPNMRLDFNGVEVHGRHHFFREIRHTSEKFGVDKVEVRLKDFKVFNGVAHYHGEIIFNGRTIEHEIIAEKVNGRWRLQFLIFR”, the protease stability score was 1.61.
Work on “TEEERSTRIAWEIWEMVHKTGDERLIRRFADPNVRIQIGEYNHHGREELENHTKRIDHLHVQDSDVKRVHHFDGQVHIDVHEIIHLEFDGVREDIKRRAHFVVVKYDGRWYLHHVKFH” yielded a protease stability score of 0.937.
Work on “SEEHKVAQHAIEIEEHVWHTGDERMLHELFDPDARLIINGQEFHGREELHRFREEMRITHMRTKEVRVQGDKMEIHVRVDVDINGKRTDIRVIIISRKVDGRWINTEIEFR” yielded a protease stability score of 0.734.
“DEERDETRELLRRLQELLRTGDEEEIRKLADPHVRSDVNGREYHGRDWATHLIMRFDHLDIERIRIFDGRIETDFRVEIGDKTFQTRMHVRKIDGRWNIKEIKII” gave a protease stability score of 1.55.
Sequence “SEDEEIFRIALHILIYTMKTGDEKMLEENFDPNTKIRVGDKEFVGREELRHWFEHLRPKDFKLRDISTQGEKIRIIGHSIGEVDGREVRYDVEMDLHKVDGRWRMTHERIH” has a protease stability score of 1.16.
In the case of “DDDERALEEAIRIIKEVFKTGDERLHEELFDPNYLLIINGVFYHGREVMRNFHRHWRIRHVEFRRTRVINGRIEMDVHIITDINGQEIRHDSHIYAHKIDGRWIFRSVEHH”, the protease stability score is reported as 1.63.
With “DEMQEVLERFAHEWFHNLHTGDEDTLLKLADPNVRVHVGDKDLIGRELWKEELHKMKGLKLELHDYHAINGRIHLDVTQKFNGKEVELEMDIIVVNGRVKEIRHQRR” the protease stability score was 1.06.
With “DEDKEMIRHAVEILLKTLYTGDWETLERLLDPNARINVDGVDIHGRDVVKHWLDRADHVSIHDSHVERFRFVNGRLTIHIKEHSRFEIGDKTMRVELKRNLFILKIDGRWILESERIV” the protease stability score was 1.01.
Sequence “DEFEEAIKLVDDIRSFALLTGDEKELKHMADPNVKLDFNGVELVGMERVWKFFEEIRLVERHVHIKDRDVQGDKVRVDGRQDIEVQQGDKKSRMDIRLDIIIKKVDGRWIVHSLVLI” has a protease stability score of 0.77.
In the case of “SEIEELVERAEKEHLRTLMTGDWRLFEHNLDPNTKLELDYDGRKIERHGRRHMSHYLKELFKSLGIKHMHLEDSHIQGDKLELHLHFHIGDKTRNVIIIVRKVNGQWIVETLIVHEH”, the protease stability score is reported as 0.829.
With “HDREKLMEELVKNWIHLLKTGDEDQLHRLLDPHAKWDINGRELHGMEHINRRISEWRIEFNERHVEVIGEKIHIEGDLRVEIDGRRDEFHSEIELVIVNGRVKEIIVREG” the protease stability score was 0.895.
For “DELEKYVLDMVMLWIRSHSTGDEDALRRLADPHTRVIINGKELHGMDDVRRHIEEIRIHEEHVHVERVEIQGNKAIVDTSRHIWIDFNGQNIRVDVKTRFHLEKIDGVWYLKEVRIG”, the protease stability score was 1.4.
Work on “SHEDRWIEHMVDLLEELFHTGDWEHLRHLFDPNTRSNINGKEFHGRDLAIKLVVEKMEFFKGARTDVEHRHVQGEKVELIFRLEYNGRRFHLSIRLQVVNGRVKEVNVKIDTE” yielded a protease stability score of 1.67.
In the case of “SEDEETSEELARRFSKAMKTGDFDHLVQQLDPNVRIDINGKEMIGRERFEEDMRRLNLSNIHFITRDIKVEIQGEMLHVRIDGHTRINGKDVKTHDIWIFEKIDGRWRLKEWIVHEE”, the protease stability score is reported as 0.913.
Work on “SDIDNEADNLLRELSEVHQTGDWKTLLELADPNVQLIVNGRDLHGWEHLARRFTELRIHHVDHRIKHIHSYDGRVDLDGRLHYDGEINGRRDILHHEVSVHTKKIDGRWIISNIQIN” yielded a protease stability score of -0.21.
For “SEKEERALELIKRFWESELTGNEDWLRHLADPDYLYILLIDGKEHNFHGMETWYEKINRIKGVQIDHLEIRHENVIGDKVEIDGRMDITVNGKRIDKRVELQYSVVDGRFKSVKITNI”, the protease stability score was 0.809.
Work on “DEEEKWIRHILELVLRAEKTGDEDRLSELMDPDVKLDIDGRDLHGREKVKEWIEELKHKFKNLRIIDRDIRIYGEKHNVHGELHFNGQTHSAIIILRIVDGRIKEIFVIHV” yielded a protease stability score of 1.32.
“DELTKEFEHFLEMLRRAQETGDEETVAKLMDPDVRIIIDGRNIIGREELTRFVSEWREEITVNEKHLKVINGRIHVDGEYHSRIRFDGREQRYSTRVHIVTIKVDGQWLLRTVHIG” gave a protease stability score of 1.05.
In the case of “SELEESLEKFLRALRHLTETGDEDTWKRLLDPTTRLEINGKEIHGREDVSRHWKELRFRSEDPKDYKIVDGVLRLDTRVDGVFNGQHREVDVEVIVFKVDGRWEIKRIRYH”, the protease stability score is reported as 1.56.
“SEDHEAFDSMIQSWLDVYLTGDEDIMLELFDPRMRVDINGKDIHGMHHYTDLLHKVRRERGFEEHLRIEDSKVINGKAEFHTHVHIRQGDKNMEFEVTIVVLKINGKWWIKHIEIT” showed a protease stability score of 0.922.
“DEEEEELKQHLHEILHSIMTGDWRSLRHLIDPNVRLDIGDKTYHGREDFLTWVKHLIDKIPNVKFEIKHIRIVGEKVIMNIVVKINGVEHTRHLIADKIDGKWFISSTEVH” showed a protease stability score of 1.76.
“GELEKLATTIVRLWVRHWYTGDEESSMRLMDPNARIIINGKEMHGRELYVHFLRRVLEHIRPESVDIEEVKIQGDYAHIDITEHRRIGDKEVTFRTEVSIIVINGKVTEVHMEIR” showed a protease stability score of 1.7.
Sequence “DEDTKVVEEILRLLVEIWKTGDEHTWKRLLDPHARMDVDGRELHGREEIARHVKEETEKLGANVHNHVEIHHMEIIGNKVIIDGTVDGIVNGRITRIRVEVFWLVFDGVIKEEEHRVL” has a protease stability score of 0.955.
With “SELEETLKRSYELLSRILETGDEHRLKSLADPHTRMDFNGVEVHGMHLTVQWMKEFGADHEQYEVRIKRLDVQGDKLHSHGLLIIRIFINGRTIDLKIETHMHAEKIDGRWVIREIIWR” the protease stability score was 1.36.
For “DEMERIIETALELLIKSERTGDEDLYREFLDPHTIIDINGKIIHGREEFVRWFTEIRVHELKLRDMEIQGEFAIIYGEVDGRIGDKHFHTSVRLIVYKIDGRWIMRWNELN”, the protease stability score was 1.42.
Work on “DEDHELSREFLEELLKSWITGDEDVMREFADPNVRQHVDGKDLHGMEEWTRFVYHMRFHDVRIEHHRLFDGQVEIKFREDVTYNGRRVHIESRVRIVKVNGVWRLKELYVH” yielded a protease stability score of 0.858.
“SEKEEISRRLLELWLKADATGDEKLLLKLMDPDVRIDVDGVENHGMELVTEFLREERDRIDHKIIEIKEMRVVGDKVHMDIRINIEVNGKENETRVELRLEIIDGKIRSVKIIKR” gave a protease stability score of 0.733.
“DEEERDIKIAIEFWIETWLTGDEEKEEELLDPNVRLLINGKELHGRERVVKFLKRHYHRVDHSRIDIRRMHVVDGQVHVETELRVHFDGRELRFDIILHFRKFNGRWEITKIELR” showed a protease stability score of 2.
Sequence “TEEEEEARRALEEWIHNLMTGDEKRELELADPHVRILIDINGREIHMHGWEQFERWVHEEMRRLGLDRFEVRLEHIEIQGDKSVLDGRINYNGVDERNNIILVVVDGKLRQIRIHVI” has a protease stability score of 1.95.
With “TEDHRDIYRIVKLLIEFFKTGDFDSLRHLADPNTRLDIGDKHRHGMDLILKEYMDEMHELGVKHFDIKIHDVEIQGDKAQWDLRLHIKVGDKIIELRVILHAVKVNGKWILHKIEFI” the protease stability score was 1.38.
For “DQEERDSKHALRFMEHVISTGDEHLIEELLDPHARLDINGVDVHGREEVKRTITEHRKRYKNLRIHVTDLEVVNGVVRLHTELNIGDKRFEVRWFLDKIDGRWLMTEIRIR”, the protease stability score was 1.12.
In the case of “SEEEEDARRAFEMWFRVLMTGDEDQVDRLMDPHVRVDINGVDLHGRTTIRRLIHEEFNRADVRSFDVEHVDYQGDWVRLEVRLILVFNGKRLELKMELISRKINGRWILESQVVE”, the protease stability score is reported as 1.39.
Work on “SEEEKHLEHMARMMVEALMTGDEKLLNHLLDPNVRVEHSINGVEITDHGWHLYVKWVRDLGIDHIYFKDMHHQGNKTHLNIEIEINGKHIETRLLLVIVNGRIHIIKHEIK” yielded a protease stability score of 2.08.
“SEEEKEIKEILERLIRSLLTGDEQELAKMADPNVRFNFQVGNKKYTLHGREHLRRHITFVFEYLGFDHITIQDSHYQGDKMTVHVELRVNGRRHEIREHWLVVDGRIKEVHVEIH” gave a protease stability score of 2.32.
Sequence “DEHTRLMDRVSKELMHYRRTGDEHSLDHLLDPHVRLDQGDWEKHGMEEYIEFVRRVKNVKLRIHDITVDIVNGVVIVFIDGILHVNGVDITTRIHIYFRKVNGVWLVESLRYEVG” has a protease stability score of 0.373.
Work on “DEMEEHSRHLVELFWHWTDTGNEDLIRKNADPNVRLEVNGVHAHGWELYIRMMNQIRIEDRKINDVEVQGDKMRVDGEVQIYYNGKRVDDHLKLHLVVVDGKLKSVHRELE” yielded a protease stability score of 1.31.
Sequence “DEEEHELLHFVHLWIDILRTGDWEKISEYADPNVKLIVGDKIFIGMEAFIEFMERFLRRVDHVQYEIRSIRAYDGVIEMHTEVREHQGDKEIHTEVHITFFVYNGVKKHIEIRIK” has a protease stability score of 2.48.
With “DEHEEEAIRMLRLIFFLLHTGDWEVMHELFDPHARFTINGRRIHGMEEWLKFLREIRIEDSDIHVKRIDIQGDKMRIKGVVHLEGNVNGRREHTELHIDVHLEKVNGRWIIRLIEFK” the protease stability score was 2.35.
With “DDENKQMEEAIWIWKYMVETGDERINHEFADPHARVDINGKEHHGREEIERFLIEFSEKVKNLRVEIEDFRSINGRVDVILRLTVNGKRVETRVHAIKVDGKWLIKEVRFH” the protease stability score was 0.624.
With “DETFEDAHKLFKKFWEDMRTGDESEIEKLLDPNDKVHQGEKQTHGREEASRTHQEDIRRVDVFERVHIDHIETQGDFAIIDSTWIIHFDGKRFTRKVIIFLVKINGQWKFHSITMR” the protease stability score was 0.71.
“DETFEWANIAIEHLIHSARTGDEKTFEEMADPDTRFLYNGQIIIGREEVNKMLSTVLREIRLEDVQVKRIEVYDGRVHSDMTRQGEFDGRHFTSKTEFIVHKVDGRWSIKEIRIT” gave a protease stability score of 0.89.
For “SEDEHHIERMLKLFVKAVKTGDEDTLVKLLDPHARLHIGDKDHHGWEDIYKHEHELGLDRVEMDIHRIHLQGDKINVDGTLFIDGKHIEVVIYAKKVNGRWFVETREIR”, the protease stability score was 1.22.
Sequence “DEDEEDMRHALELIYRTFETGDERTTEELMDPHARIDIGEFKLHGREEAVEFYRLLLRKVKNLTIKIHHVEVYGEKITIDGRIDFDGRKRRVIILVEKVDGKWVINEIRVH” has a protease stability score of 1.42.
Sequence “HEEETHWRSLTHLFAEWIITGNEDLYMELADPHYLIEIDGKTQHGRENANEVHETFWKDYGFKHRHVRSVRQVGDFVEIEVNLLFNGQRYDMHIHVFVIDGKLKEIHVSLK” has a protease stability score of 1.33.
For “SEDEREFLDVLKWLIEAVATGDERIWKELVDPHVRLEVGDKHRHGRETFEKTMRHLRVKEVRVKLHDFDFIGEKMTADVKLEIHLIVGDKERDIRLDIIVHSRKIDGKWHVESIHIR”, the protease stability score was 1.51.
In the case of “SEDEEIAHHVVNLIMKIIRTGDEDNFKQLFDPHTRFTVGDKHHIGRETVIEFFRRWEEFYPNIQLELRLRDVKAYGDKVHVETEVIIRVGDKDLRFETTVYILKYNGRWFLKQEQFR”, the protease stability score is reported as 0.769.
In the case of “NEHEKLLKESLEELRHALRTGDEESLERLVDPHARMVVNGVTYHGREYLHRFFHRIDYFHNEHLDVKEVHVQGDKIHFDVVTHGVFHVGDKKIKDTIRLSSIAEKIDGRWFNREIFHH”, the protease stability score is reported as 0.412.
“DDTDKLLKEYLEMEMEMIRTGNEHIFTRLADPNVRIEQGDKHFHGREEYKRLMEEHFEKIQHAKIEFRVHDIKRIGDKMYIRGEFIVHVGEYHESQDRIFINRKIDGRWYVEEIIIR” gave a protease stability score of 1.25.
For “SEEEELTEMVARVIVHSLLTGDEENLDHMLDPNVKIDNDIDGKEERLHGREDRRRVNEEWGWSNIHWIVRRIRTQGNKATVDGEIRFDGVTEHVRLIVILFNGKVHLVRLKHL”, the protease stability score was 0.77.
“DEDDKDIEMVLRRLIEMVMTGDFEKAKRYADPDMQLDIGDKHFVGRETTITVLREWREHLGIDHVDIDHVHLHIIDGQVIVDLDITHRAENREIRVRFIHYVDKINGRWLVRRVDVKIH” showed a protease stability score of 2.31.
